{
  "source": "patent US20250295792A1",
  "about": "(ZONHON BIOPHARMA INSTITUTE, published 2025)",
  "note": "Where no end group is shown, it is not given here. [ ]: non-standard residue; d: D form. 2Thi = N[C@@H](Cc1cccs1)C(=O)O",
  "data": [
    {"molecular_target": "B2 receptor", "sequence (P30411 whole entry)": "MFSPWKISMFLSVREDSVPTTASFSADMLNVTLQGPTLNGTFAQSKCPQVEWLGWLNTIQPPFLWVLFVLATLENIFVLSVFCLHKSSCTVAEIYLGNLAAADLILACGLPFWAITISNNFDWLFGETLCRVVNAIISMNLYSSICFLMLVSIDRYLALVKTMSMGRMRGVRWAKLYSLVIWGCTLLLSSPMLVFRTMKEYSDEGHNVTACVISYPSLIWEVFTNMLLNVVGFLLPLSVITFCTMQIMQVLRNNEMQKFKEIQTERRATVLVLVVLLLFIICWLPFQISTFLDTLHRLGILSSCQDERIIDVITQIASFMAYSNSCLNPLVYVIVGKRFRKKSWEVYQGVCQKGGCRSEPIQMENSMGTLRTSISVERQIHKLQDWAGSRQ", "test": "cell-based or functional assay", "units": {"EC50 value (B2 receptor reporter gene assay, FIG. 4a)": "µg/mL", "fold activity against Lys-BKm01-YNHS10K (B2 receptor reporter gene assay)": "fold"}, "values": [
      {"binder": "KRPPGXSPFR ({THI} (β-2-thiophenylalanine) at position 6; N-terminal single modification with M-YNHS-10K (branched-chain mPEG succinimidyl acetate, about 10 kDa))", "note": "[Lys-BKm01-YNHS10K]", "EC50 value (B2 receptor reporter gene assay, FIG. 4a)": 347},
      {"binder": "KRPPGXSPFR ({THI} (β-2-thiophenylalanine) at position 6; N-terminal single modification with M-SPA-10K (straight-chain mPEG succinimidyl propionate, about 10 kDa))", "note": "[Lys-BKm01-SPA10K]", "EC50 value (B2 receptor reporter gene assay, FIG. 4a)": 90.8, "fold activity against Lys-BKm01-YNHS10K (B2 receptor reporter gene assay)": "~4"}
    ]},
    {"molecular_target": "B2 receptor", "test": "cell-based or functional assay", "remark": "another data set of the same source", "units": {"Relative affinity activity (B2-NFAT-CHO-K1 luciferase reporter gene assay, from EC50)": "%"}, "values": [
      {"binder": "KRPPGHSPFR", "note": "[Lys-BKm03]", "Relative affinity activity (B2-NFAT-CHO-K1 luciferase reporter gene assay, from EC50)": "< 10"},
      {"binder": "KRPPGXSPFR ({THI} (β-2-thiophenylalanine) at position 6: KRPPG{THI}SPFR)", "note": "[Lys-BKm01]", "Relative affinity activity (B2-NFAT-CHO-K1 luciferase reporter gene assay, from EC50)": 100},
      {"binder": "KRPPG[2Thi]SPFRKRPPG[2Thi]SPFR", "note": "[Lys-BKm14]", "Relative affinity activity (B2-NFAT-CHO-K1 luciferase reporter gene assay, from EC50)": 100},
      {"binder": "KRPPGFSPHR", "note": "[Lys-BKm04]", "Relative affinity activity (B2-NFAT-CHO-K1 luciferase reporter gene assay, from EC50)": "< 10"},
      {"binder": "KRPPGFSPFR", "note": "[Lys-BK (wild-type lysyl bradykinin)]", "Relative affinity activity (B2-NFAT-CHO-K1 luciferase reporter gene assay, from EC50)": 100},
      {"binder": "KRPPG[2Thi]SPFRRPPG[2Thi]SPFR", "note": "[Lys-BKm12]", "Relative affinity activity (B2-NFAT-CHO-K1 luciferase reporter gene assay, from EC50)": 100},
      {"binder": "KRPPGXSPXR ({THI} (β-2-thiophenylalanine) at positions 6 and 9: KRPPG{THI}SP{THI}R)", "note": "[Lys-BKm07]", "Relative affinity activity (B2-NFAT-CHO-K1 luciferase reporter gene assay, from EC50)": "< 10"},
      {"binder": "KRPPGXSPFRR ({THI} (β-2-thiophenylalanine) at position 6: KRPPG{THI}SPFRR)", "note": "[Lys-BKm06]", "Relative affinity activity (B2-NFAT-CHO-K1 luciferase reporter gene assay, from EC50)": 90}
    ]}
  ]
}
